Reference: publication PMC2809091

Assays:
[1] = target: F137L/E363G variant of S. pyogenes enolase (S. pyogenes) (UniProt P69949); assay: AUC; sedimentation velocity, 20°C; pH 9.0, 50 mM Tris or glycine with 1 mM Mg(OAc)2 and 0.1 mM EDTA; octamer to monomers
[2] = target: F137L/E363G variant of S. pyogenes enolase (S. pyogenes) (UniProt P69949); assay: AUC; sedimentation velocity; 22.7 µM enolase in TME with varying NaClO4; octamer to monomers
[3] = target: F137L/E363G variant of S. pyogenes enolase (S. pyogenes) (UniProt P69949); assay: AUC; sedimentation velocity; 19.4 µM enolase incubated in 0.2 M NaClO4, then dialysed 24 hours against buffer (reassociation)
[4] = target: F137L/E363G variant of S. pyogenes enolase (S. pyogenes) (UniProt P69949); assay: AUC; sedimentation velocity; 19.4 µM enolase after incubation in 0.2 M NaClO4; octamer to monomers
[5] = target: F137L/E363G variant of S. pyogenes enolase (S. pyogenes) (UniProt P69949); assay: AUC; sedimentation velocity, 20°C; pH 7.4, 50 mM Tris with 1 mM Mg(OAc)2 and 0.1 mM EDTA
[6] = target: F137L/E363G variant of S. pyogenes enolase (S. pyogenes) (UniProt P69949); assay: AUC; sedimentation velocity, 15°C; 2.7 µM enolase incubated 18 h at 15°C in TME with NaClO4 (up to 0.4 M); octamer to monomers

F137L/E363G variant of S. pyogenes enolase (from UniProt P69949 1-435) (enzyme)
percent monomeric [1]: 54%
percent octameric [1]: 39%
NaClO4 concentration at 50% dissociation [2]: 0.12 M
percent octameric after dialysis against buffer [3]: 77%
percent octameric in 0.2 M NaClO4 [4]: 21%
percent octameric [5]: 88%
stoichiometry N [5]: 8
NaClO4 concentration at 50% dissociation [6]: 0.06 M
